Reference: patent US20250011869A1, “TLR3 INHIBITORS FOR USE IN THE TREATMENT OF DISEASES ASSOCIATED WITH CARDIOVASCULAR CALCIFICATION” (priority 2021, published 2025)
Entries after “also recorded” stand apart in the source; their conditions may differ.

Tests used:
[1] = biological target: TLR3 (Homo sapiens, UniProt O15455); test: HEK293 hTLR3 reporter cell assay (TLR3/ISRE LUCPorter, luminometer); format: cell-based; settings: putative ligands at increasing concentrations, 24 h (biglycan 5, 10, 20 μg/ml)
Experimental: All cells were cultivated under standard conditions (37° C., supplied with 5% CO2). Passaging of the cells was performed at 70-90% confluency, and cells were only used until passage 7 as described previously^6. Polyinosinic: polycytidylic acid (Poly(I:C); Invivogen, San Diego, CA) was used to stimulate cells at a concentration of either 20 μg/mL or 5 μg/ml, depending on the assay. For blockade of TLR3, the commercially available dsRNA/TLR3 inhibitor ((R)-2-(3-Chloro-6-fluorobenzo [b] thiophene-2-carboxamido)-3-phenyl-propanoic acid) was used (Merck, Darmstadt, Germany) at a concentration of 1 μg/ml as described previously^1,7. LY294002 (Invivogen, San Diego, CA), a PI3K inhibitor, was used at a concentration of 10 μM. For blockade of IFNAR1, a specific blocking antibody (Invitrogen, Carlsbad, CA) was used at a concentration of 4 μg/ml. A stable HEK (human embryonic kidney) reporter cell line (TLR3/ISRE LUCPorter; Imgenex, USA) was purchased for luminometer assay experiments. Cells were cultivated according to the manufacturer's protocol in DMEM with 4.5 g/L glucose (Lonza, Switzerland), 10% FCS (Sigma, St. Louis, MO), penicillin/streptomycin, and 4 mM L-glutamine and […] puromycin (Gibco, USA) as selection agent. Reporter experiments were performed as described previously^8. […]

[2] = tested on: TLR3-RUNX2 pathway; test: Immunoblot of human dermal fibroblasts for the TLR3-RUNX2 pathway; format: cell-based; settings: wild type and empty vector control cells; 5 μg/ml, 6 h
Source text: Human dermal fibroblasts WT and Tlr3^−/− were kindly provided by the Jean-Laurent Casanova group and cultivated in DMEM with 4.5 g/L glucose (Lonza, Basel, Switzerland), 10% FCS (Sigma, St. Louis, MO), penicillin, streptomycin and L-Glutamine. Human dermal fibroblasts CTR cells were provided by the Villunger group and cultivated in DMEM with 4.5 g/L glucose (Lonza, Basel, Switzerland), 10% FCS (Sigma, St. Louis, MO), penicillin, streptomycin and L-Glutamine.
All cells were cultivated under standard conditions (37° C., supplied with 5% CO2). Passaging of the cells was performed at 70-90% confluency, and cells were only used until passage 7 as described previously^6. Polyinosinic: polycytidylic acid (Poly(I:C); Invivogen, San Diego, CA) was used to stimulate cells at a concentration of either 20 μg/mL or 5 μg/ml, depending on the assay. For blockade of TLR3, the commercially available dsRNA/TLR3 inhibitor ((R)-2-(3-Chloro-6-fluorobenzo [b] thiophene-2-carboxamido)-3-phenyl-propanoic acid) was used (Merck, Darmstadt, Germany) at a concentration of 1 μg/ml as described previously^1,7. LY294002 (Invivogen, San Diego, CA), a PI3K inhibitor, was used at a concentration of 10 μM. For blockade of IFNAR1, a specific blocking antibody (Invitrogen, Carlsbad, CA) was used at a concentration of 4 μg/ml. A stable HEK (human embryonic kidney) reporter cell line (TLR3/ISRE LUCPorter; Imgenex, USA) was purchased for luminometer assay experiments. Cells were cultivated according to the manufacturer's protocol in DMEM with 4.5 g/L glucose (Lonza, Switzerland), 10% FCS (Sigma, St. Louis, MO), penicillin/streptomycin, and 4 mM L-glutamine and […] puromycin (Gibco, USA) as selection agent. Reporter experiments were performed as described previously^8. For the protein expression SF21 cells were purchased at ThermoFisher (#11497013) and cultivated in Gibco™ Sf-900™ SFM supplemented with penicillin, streptomycin and L-Glutamine. In vitro stretch was applied using a Flexcell bioreactor (Flexcell International Corporation, Burlington, NC) applying 15% cyclic strain as described previously^9.
Protein from tissue or cell lysates was extracted using a Radioimmunoprecipitation Assay Lysis Puffer (150 mM NaCl, 1% NP-40, 0.5% Sodium Deoxycholate, 0.1% SDS and 50 mM Tris (pH 8,0)). For the extraction of nuclear or cytosolic proteins the NE-PER™ Nuclear and Cytoplasmic Extraction Reagents Kit (ThermoScientific, #78835) was used.
Protein was thereafter separated on SDS-polyacrylamide gels of different percentages and transferred to nitrocellulose membranes as described previously^18. After blocking with either 5% BSA in TBS 0.1% Tween, 5% milk in TBS 0.1% Tween or StartingBlock™ (TBS) Blocking buffer (ThermoScientific, #37542) membranes were incubated with primary antibodies listed in Table 2.

[3] = tested on: TLR3; test: TLR3 expression in valvular interstitial cells (immunoblot / RT-qPCR); format: cell-based, human; settings: immunoblot; 20 μg/ml, 24 h or 48 h (FIG. 7A)
Experimental: Valvular interstitial cells from patients undergoing aortic valve replacement or cardiac transplantation were isolated via collagen digestion as described previously^6. Valves were rinsed in EBSS and subsequently subjected to collagenase digestion (Sigma, St. Louis, MO; 2.5 mg/mL in M199) for 30 minutes at 37° C. Thereafter, tissue samples were vortexed and supernatant containing endothelial cells was removed. Again, collagenase was added to the remaining valve tissue (1 mg/mL) for 3 h at 37° C. For mechanical disintegration of the tissue, vortexing and repeated aspiration via a pipette was performed. The supernatant was transferred into a new tube and subjected to centrifugation (300 g for 8 minutes at 4° C.). Subsequently, cells were resuspended in M199 medium containing 10% fetal calve serum, penicillin, streptomycin, L-Glutamine and amphotericin B (2.5 mg/L).
All cells were cultivated under standard conditions (37° C., supplied with 5% CO2). Passaging of the cells was performed at 70-90% confluency, and cells were only used until passage 7 as described previously^6. […]
RT-PCR was performed as described previously^17. […] The result for the relative gene expression was calculated by the 2-DDCt method. Mean Ct values were calculated from double determinations and samples were considered negative if the Ct values exceeded 4017. […]

B1: BGN: proteoglycan biglycan (BGN), a structural protein of the extracellular matrix (ECM) (protein)
chain: DEEASGAETTSGIPDLDSLPPTYSAMCPFGCHCHLRVVQCSDLGLKAVPKEISPDTTLLDLQNNDISELRKDDFKGLQHLYALVLVNNKISKIHEKAFSPLRKLQKLYISKNHLVEIPPNLPSSLVELRIHDNRIRKVPKGVFSGLRNMNCIEMGGNPLENSGFEPGAFDGLKLNYLRISEAKLTGIPKDLPETLNELHLDHNKIQAIELEDLLRYSKLYRLGLGHNQIRMIENGSLSFLPTLRELHLDNNKLSRVPAGLPDLKLLQVVYLHTNNITKVGVNDFCPVGFGVKRAYYNGISLFNNPVPYWEVQPATFRCVTDRLAIQFGNYKK
With B1 the “activation of TLR3 reporter cells” value [1] was “activated TLR3 reporter cells in a dose-dependent fashion”, the IFNAR1 level [2] was “upregulation of IFNAR1” and the “levels of osteoblastic transcription factor RUNX2” value [2] was “increased levels”. The “phosphorylation of IRF3” value [2] was “phosphorylation of IRF3” and the “TLR3 expression in VICs” value [3] was “induces TLR3 expression in a dose-dependent manner; also recorded: induced TLR3 expression in VICs”.
